The data set deals with His6-aptamers (peptide aptamers of FIGS. 4A and 4B, purified).

One substance from US20090130676 can be followed below.

Cdk2/Cyclin E kinase: the “phosphorylation of Histone H1 by Cdk2/Cyclin E kinase” value was “All tested aptamers were able to inhibit phosphorylation of Histone H1 by Cdk2/Cyclin E kinase”.
